Columns and labels:
[1] = molecular target: C-terminal truncation mutant of tetradecamer GroEL, Δ526 (E. coli) (UniProt P0A6F5); test: cryo-EM structure; acid-urea denatured PepQ (7 μM final) titrated into GroEL or Δ526 (8 μM tetradecamers) in TKM buffer, no nucleotide, room temperature 5 min; asymmetric 3D classification and refinement
[2] = molecular target: PepQ-24TMR (E. coli) (UniProt P21165); test: single-molecule two-colour co-incidence detection; PepQ-24OG and PepQ-24TMR 1:1, denatured, refolded at 100 nM total monomer with GroEL, GroES and ATP at 23 °C, then diluted 1,000-fold to 100 pM; cross-correlation of fluorescence bursts
[3] = molecular target: PepQ-24TMR (E. coli) (UniProt P21165); test: single-molecule two-colour co-incidence detection; PepQ-24OG and PepQ-24TMR 1:1, denatured in acid-urea, spontaneous folding at 2 nM monomer in TKM buffer with 0.1 mg ml^-1 BSA, 23 °C, 10 min, then diluted 20-fold to 100 pM
[4] = molecular target: C-terminal truncation mutant of tetradecamer GroEL, Δ526 (E. coli) (UniProt P0A6F5)

C-terminal truncation mutant of tetradecamer GroEL, Δ526 (from UniProt P0A6F5 2-526) (domain or fragment)
stoichiometry N [1]: 14

PepQ-24OG (from UniProt P21165 1-443) (enzyme)
coincident fraction [2]: 10% | co-incidence [3]: < 1% | co-incidence (most likely overlap) [3]: 0.75%

wild type E. coli PepQ (from UniProt P21165 1-443) (enzyme)
observed folding rate constant of PepQ by recovery of enzymatic activity, bound to Δ526 (200 nM) and refolded with GroES (400 nM) and ATP (2 mM) [4]: 0.106 min⁻¹

Source: PMC5497066
